# Measured values reported in article PMC11813886.
# T1: FHR-B_(Y162H)
# T1 chain: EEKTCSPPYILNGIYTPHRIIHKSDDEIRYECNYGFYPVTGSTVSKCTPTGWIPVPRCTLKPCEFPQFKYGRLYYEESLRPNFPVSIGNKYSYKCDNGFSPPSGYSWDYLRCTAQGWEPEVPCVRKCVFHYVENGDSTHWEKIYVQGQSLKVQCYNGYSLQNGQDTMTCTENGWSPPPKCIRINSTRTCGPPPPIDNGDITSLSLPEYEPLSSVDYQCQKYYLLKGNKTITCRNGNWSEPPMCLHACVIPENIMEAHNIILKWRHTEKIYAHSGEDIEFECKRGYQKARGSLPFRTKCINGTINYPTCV
# T2: FHR-B_(T161A,I166V)
# T2 chain: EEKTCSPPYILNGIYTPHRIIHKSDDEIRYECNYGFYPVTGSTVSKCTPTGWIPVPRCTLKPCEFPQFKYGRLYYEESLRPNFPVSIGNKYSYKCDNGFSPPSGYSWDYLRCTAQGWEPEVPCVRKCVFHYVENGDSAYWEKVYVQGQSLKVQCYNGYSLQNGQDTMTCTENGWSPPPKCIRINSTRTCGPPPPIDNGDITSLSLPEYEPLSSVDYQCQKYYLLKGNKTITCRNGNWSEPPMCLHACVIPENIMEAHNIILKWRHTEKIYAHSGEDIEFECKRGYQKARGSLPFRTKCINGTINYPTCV
# Assays:
# human C3b = assay: ELISA; details: chain shown with the change; human C3b-coated plates; value read at 50 nM protein (highest concentration); parent: est. 0.69; read off a plot
# FHR-B_(Y162H) = target: T1, FHR-B_(Y162H); assay: AUC (analytical ultracentrifugation, sedimentation velocity), self-association (dimerization); details: chain shown with the change; PBS pH 7; parent: est. 1.0; read off a plot
# FHR-B_(T161A,I166V) = target: T2, FHR-B_(T161A,I166V); assay: as above; details: chain shown with the change; PBS pH 7; parent: est. 1.0; read off a plot
# human C3b, sequence (chain, as listed by the source, chain 1 of 2): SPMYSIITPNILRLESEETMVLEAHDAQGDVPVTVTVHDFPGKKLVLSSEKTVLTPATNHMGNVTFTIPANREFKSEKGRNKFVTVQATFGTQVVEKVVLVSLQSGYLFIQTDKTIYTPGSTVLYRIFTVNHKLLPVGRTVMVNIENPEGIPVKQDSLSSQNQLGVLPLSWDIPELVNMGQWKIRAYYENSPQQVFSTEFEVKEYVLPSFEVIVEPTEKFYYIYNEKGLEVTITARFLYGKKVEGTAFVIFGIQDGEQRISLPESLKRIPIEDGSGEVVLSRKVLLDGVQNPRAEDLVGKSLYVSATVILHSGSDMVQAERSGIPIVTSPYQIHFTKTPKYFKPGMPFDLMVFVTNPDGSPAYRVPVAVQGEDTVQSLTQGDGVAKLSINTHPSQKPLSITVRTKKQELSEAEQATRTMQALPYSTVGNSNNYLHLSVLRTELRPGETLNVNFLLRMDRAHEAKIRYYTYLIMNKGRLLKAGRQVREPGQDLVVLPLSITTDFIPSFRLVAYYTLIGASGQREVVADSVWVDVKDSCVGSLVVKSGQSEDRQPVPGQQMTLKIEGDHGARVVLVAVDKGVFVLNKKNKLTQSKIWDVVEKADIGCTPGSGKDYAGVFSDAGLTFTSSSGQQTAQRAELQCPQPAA
# human C3b, sequence (chain, as listed by the source, chain 2 of 2): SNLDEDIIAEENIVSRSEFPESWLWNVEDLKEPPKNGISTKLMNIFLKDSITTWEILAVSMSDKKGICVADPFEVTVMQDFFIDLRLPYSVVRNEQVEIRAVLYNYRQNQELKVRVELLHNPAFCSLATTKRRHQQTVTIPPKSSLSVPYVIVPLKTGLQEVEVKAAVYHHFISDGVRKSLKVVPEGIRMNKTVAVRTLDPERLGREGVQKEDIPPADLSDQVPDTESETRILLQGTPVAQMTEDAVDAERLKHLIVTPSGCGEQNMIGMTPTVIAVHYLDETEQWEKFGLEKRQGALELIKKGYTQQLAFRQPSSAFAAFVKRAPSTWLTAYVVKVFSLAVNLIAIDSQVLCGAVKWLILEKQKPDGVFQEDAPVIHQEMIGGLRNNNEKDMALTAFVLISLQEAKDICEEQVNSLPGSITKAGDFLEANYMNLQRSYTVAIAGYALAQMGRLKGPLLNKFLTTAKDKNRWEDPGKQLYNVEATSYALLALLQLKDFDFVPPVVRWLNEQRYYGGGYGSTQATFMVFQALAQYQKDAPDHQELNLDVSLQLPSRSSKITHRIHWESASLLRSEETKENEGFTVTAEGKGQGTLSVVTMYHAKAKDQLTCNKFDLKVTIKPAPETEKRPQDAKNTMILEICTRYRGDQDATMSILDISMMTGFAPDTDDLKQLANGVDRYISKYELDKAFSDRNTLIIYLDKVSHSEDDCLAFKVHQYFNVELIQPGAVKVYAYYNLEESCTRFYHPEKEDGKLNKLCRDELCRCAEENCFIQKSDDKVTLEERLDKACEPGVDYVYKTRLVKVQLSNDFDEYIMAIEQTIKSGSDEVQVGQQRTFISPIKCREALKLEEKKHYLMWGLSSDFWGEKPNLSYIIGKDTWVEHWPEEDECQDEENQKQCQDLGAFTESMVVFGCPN
response (human C3b),other: c(S) height of dimer peak (normalised distribution) (FHR-B_(Y162H)),"other: c(S) height of dimer peak (normalised distribution) (FHR-B_(T161A,I166V))",Binder
0.66 Abs 405nm,0.09,–,recombinant form of the native mouse FHR-B protein (rFHR-B) Y162H (protein) EEKTCSPPYILNGIYTPHRIIHKSDDEIRYECNYGFYPVTGSTVSKCTPTGWIPVPRCTLKPCEFPQFKYGRLYYEESLRPNFPVSIGNKYSYKCDNGFSPPSGYSWDYLRCTAQGWEPEVPCVRKCVFHYVENGDSTHWEKIYVQGQSLKVQCYNGYSLQNGQDTMTCTENGWSPPPKCIRINSTRTCGPPPPIDNGDITSLSLPEYEPLSSVDYQCQKYYLLKGNKTITCRNGNWSEPPMCLHACVIPENIMEAHNIILKWRHTEKIYAHSGEDIEFECKRGYQKARGSLPFRTKCINGTINYPTCV
0.66 Abs 405nm,–,0.13,recombinant form of the native mouse FHR-B protein (rFHR-B) T161A; I166V (protein) EEKTCSPPYILNGIYTPHRIIHKSDDEIRYECNYGFYPVTGSTVSKCTPTGWIPVPRCTLKPCEFPQFKYGRLYYEESLRPNFPVSIGNKYSYKCDNGFSPPSGYSWDYLRCTAQGWEPEVPCVRKCVFHYVENGDSAYWEKVYVQGQSLKVQCYNGYSLQNGQDTMTCTENGWSPPPKCIRINSTRTCGPPPPIDNGDITSLSLPEYEPLSSVDYQCQKYYLLKGNKTITCRNGNWSEPPMCLHACVIPENIMEAHNIILKWRHTEKIYAHSGEDIEFECKRGYQKARGSLPFRTKCINGTINYPTCV
